Assay results from patent US20140030216.

Key:
[1] = target: T1, recombinant rhIFNAR1 (≈110 kD), P17181
T1 chain: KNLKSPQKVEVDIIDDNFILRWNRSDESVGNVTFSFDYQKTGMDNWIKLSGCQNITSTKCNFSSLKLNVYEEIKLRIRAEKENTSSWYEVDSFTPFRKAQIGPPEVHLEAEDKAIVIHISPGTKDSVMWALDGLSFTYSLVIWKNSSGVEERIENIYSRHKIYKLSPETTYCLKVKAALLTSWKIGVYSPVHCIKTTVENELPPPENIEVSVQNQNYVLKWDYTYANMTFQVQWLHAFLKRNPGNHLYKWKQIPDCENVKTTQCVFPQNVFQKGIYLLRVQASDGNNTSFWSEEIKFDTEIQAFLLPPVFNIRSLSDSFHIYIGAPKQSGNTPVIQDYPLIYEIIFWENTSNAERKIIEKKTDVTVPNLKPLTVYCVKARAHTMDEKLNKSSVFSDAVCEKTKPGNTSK

[2] = target: rhMCP-3, P80098
rhMCP-3, P80098, sequence (P80098 24-99): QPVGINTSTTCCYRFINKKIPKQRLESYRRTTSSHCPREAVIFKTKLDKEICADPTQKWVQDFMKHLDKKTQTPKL

B1: Purified human MMP-2 (mixture of the proenzyme (50%) and the active form (50%)) (protein)
chain: YNFFPRKPKWDKNQITYRIIGYTPDLDPETVDDAFARAFQVWSDVTPLRFSRIHDGEADIMINFGRWEHGDGYPFDGKDGLLAHAFAPGTGVGGDSHFDDDELWTLGEGQVVRVKYGNADGEYCKFPFLFNGKEYNSCTDTGRSDGFLWCSTTYNFEKDGKYGFCPHEALFTMGGNAEGQPCKFPFRFQGTSYDSCTTEGRTDGYRWCGTTEDYDRDKKYGFCPETAMSTVGGNSEGAPCVFPFTFLGNKYESCTSAGRSDGKMWCATTANYDDDRKWGFCPDQGYSLFLVAAHEFGHAMGLEHSQDPGALMAPIYTYTKNFRLSQDDIKGIQELYGASPDIDLGTGPTPTLGPVTPEICKQDIVFDGIAQIRGEIFFFKDRFIWRTVTPRDKPMGPLLVATFWPELPEKIDAVYEAPQEEKAVFFAGNEYWIYSASTLERGYPKPLTSLGLPPDVQRVDAAFNWSKNKKTYIFAGDKFWRYNEVKKKMDPGFPKLIADAWNAIPDNLDAVVDLQGGGHSYFFKGAYYLKLENQSLKSVKFGSIKSDWLGC
degradation of rhIFNAR1 after overnight incubation with MMP-2 (Western blot) [1]: recombinant rhIFNAR1 (≈110 kD) incubated overnight with active MMP-2 was degraded by MMP-2
MCP-3 degradation (MCP-3 content by ELISA after overnight incubation) [2]: MMP-2 activity was controlled by measuring its capacity to degrade MCP-3
